Assay results as given in doi:10.1101/756791 (bioRxiv, 2019).

Columns and labels:
[1] = molecular target: hRpn13 (Pru domain: 1-150aa) (human, UniProt Q16186 1-150); experiment: other fluorescence titration
[2] = molecular target: T1, Rpn10/S5a (UIM motifs: 196-306aa) (UniProt P55036 196-306); experiment: NMR titration
T1 sequence (looked up): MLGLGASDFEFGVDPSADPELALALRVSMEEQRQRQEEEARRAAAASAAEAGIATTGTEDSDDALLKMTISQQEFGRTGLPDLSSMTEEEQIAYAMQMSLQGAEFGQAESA

[3] = molecular target: T1, Rpn10/S5a (UIM motifs: 196-306aa); experiment: ITC
[4] = molecular target: T1, Rpn10/S5a (UIM motifs: 196-306aa); experiment: NMR titration; remark: listed apart in the source

Sequence of hRpn13 (Pru domain: 1-150aa) (Q16186 1-150): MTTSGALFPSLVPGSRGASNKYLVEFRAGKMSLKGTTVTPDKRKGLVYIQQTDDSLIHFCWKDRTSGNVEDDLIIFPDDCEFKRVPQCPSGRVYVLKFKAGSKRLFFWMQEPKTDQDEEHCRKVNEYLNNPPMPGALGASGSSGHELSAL

B1: viral Ubiquitin from Autographa Californica Multiple Nucleo-Polyhedrosis Virus (AcMNPV) (natural protein)
chain: not shown
In the case of B1, the Kd [1] is reported as 0.04 µM, the “KD of the UIM1 site” value [2] is reported as 331 µM and the “KD of the UIM2 site” value [2] is reported as 21 µM. For the same binder, the Kd [3] was 85 µM, the dH [3] was -4.5 ± 0.3 kcal/mol and the “stoichiometry N” value [3] was 2 ± 0.1. For the same binder, the Kd [4] was 78 µM.
